The text below walks through data of the Immune Epitope Database (IEDB).

One experiment concerns the target HLA-A*31:01. Put plainly: IEDB peptide-MHC binding, purified MHC/direct/fluorescence; filed as Kd, often an IC50 or EC50 that approximates it; ≥ and ≤ were set here for values at or beyond the usual limits of such assays. The note with it: source organism: Influenza A virus (A/swine/Chiai/77-10/2001(H3N1)).
The next experiment addresses HLA-B*27:05. The description is as above. As to conditions: source organism: Influenza A virus (A/swine/Chiai/77-10/2001(H3N1)).
The next experiment deals with HLA-B*08:02. The experiment is described as above. As to conditions: source organism: Influenza A virus (A/turkey/NC/17026/1988(H1N1)).
The target in a further experiment is HLA-B*08:01. The experiment is described as above. The note with it: source organism: Influenza A virus (A/turkey/NC/17026/1988(H1N1)).
For a further experiment, the target named is HLA-B*15:17. The experiment is described as above. As to conditions: source organism: Influenza A virus (A/swine/Chiai/77-10/2001(H3N1)).
The target of the next experiment is HLA-B*15:09. The experiment is described as above. The note with it: source organism: Influenza A virus (A/turkey/NC/17026/1988(H1N1)).
Experiment [1] deals with HLA-B*18:01. The experiment is described as above. As to conditions: source organism: Influenza A virus (A/swine/Chiai/77-10/2001(H3N1)).
The next experiment addresses HLA-B*40:01. Described as above. The note with it: source organism: Influenza A virus (A/swine/Chiai/77-10/2001(H3N1)).
The next experiment has as its target HLA-B*48:01. The experiment is described as above. As to conditions: source organism: Influenza A virus (A/swine/Chiai/77-10/2001(H3N1)).
Experiment [2] concerns the target HLA-B*57:01. The description is as above. The note with it: source organism: Influenza A virus (A/swine/Chiai/77-10/2001(H3N1)).
In the next experiment the target is HLA-B*46:01. The experiment is described as above. As to conditions: source organism: Influenza A virus (A/swine/Chiai/77-10/2001(H3N1)).
The next experiment has as its target HLA-A*01:01. The experiment is described as above. The note with it: source organism: Influenza A virus (A/swine/Chiai/77-10/2001(H3N1)).
The next experiment has as its target HLA-B*39:01. The experiment is described as above. The note with it: source organism: Influenza A virus (A/turkey/NC/17026/1988(H1N1)).
Experiment [3] concerns the target HLA-A*02:01. The description is as above. As to conditions: source organism: Influenza A virus (A/swine/Chiai/77-10/2001(H3N1)).
In another experiment the target is HLA-B*15:01. Described as above. As to conditions: source organism: Influenza A virus (A/swine/Chiai/77-10/2001(H3N1)).
The target in experiment [4] is HLA-B*07:02. The experiment is described as above. As to conditions: source organism: Influenza A virus (A/swine/Chiai/77-10/2001(H3N1)).
For the next experiment, the target named is HLA-A*69:01. The experiment is described as above. The note with it: source organism: Influenza A virus (A/swine/Chiai/77-10/2001(H3N1)).
The target of a further experiment is HLA-B*58:01. The experiment is described as above. The note with it: source organism: Influenza A virus (A/swine/Chiai/77-10/2001(H3N1)).
The target in experiment [5] is HLA-A*03:01. The description is as above. As to conditions: source organism: Influenza A virus (A/swine/Chiai/77-10/2001(H3N1)).
In the next experiment the target is HLA-A*26:01. The description is as above. The note with it: source organism: Influenza A virus (A/turkey/NC/17026/1988(H1N1)).
In a further experiment the target is HLA-A*11:01. Briefly: IEDB peptide-MHC binding, purified MHC/competitive/fluorescence; filed as Kd, often an IC50 or EC50 that approximates it; ≥ and ≤ were set here for values at or beyond the usual limits of such assays. As to conditions: source organism: Influenza A virus.
In the next experiment the target is HLA-A*80:01. The description is as above.
In the next experiment the target is HLA-A*23:01. Described as above. As to conditions: source organism: Vibrio parahaemolyticus K5030.
The target in another experiment is HLA-C*05:01. Briefly: IEDB peptide-MHC binding, purified MHC/direct/fluorescence; filed as Kd, often an IC50 or EC50 that approximates it; ≥ and ≤ were set here for values at or beyond the usual limits of such assays. The note with it: source organism: Rickettsia bellii RML369-C.
Another experiment addresses HLA-C*03:03. The description is as above. As to conditions: source organism: Rickettsia bellii RML369-C.
A further experiment concerns the target HLA-B*27:03. Put plainly: IEDB peptide-MHC binding, purified MHC/competitive/fluorescence; filed as Kd, often an IC50 or EC50 that approximates it; ≥ and ≤ were set here for values at or beyond the usual limits of such assays. The note with it: source organism: Rickettsia bellii RML369-C.
The target in experiment [6] is HLA-B*18:01. The experiment is described as above. As to conditions: source organism: Rickettsia bellii RML369-C.
Experiment [7] has as its target HLA-B*57:01. Described as above. As to conditions: source organism: Rickettsia bellii RML369-C.
A further experiment concerns the target HLA-A*29:02. The experiment is described as above. As to conditions: source organism: Rickettsia bellii RML369-C.
For experiment [8], the target named is HLA-A*02:01. Described as above. The note with it: source organism: Rickettsia bellii RML369-C.
The target in experiment [9] is HLA-A*03:01. The experiment is described as above. As to conditions: source organism: Rickettsia bellii RML369-C.
The target of another experiment is HLA-A*02:11. The description is as above. The note with it: source organism: Rickettsia bellii RML369-C.
Experiment [10] deals with HLA-B*07:02. Briefly: IEDB peptide-MHC binding, purified MHC/competitive/fluorescence; ≥ and ≤ were set here for values at or beyond the usual limits of such assays. The note with it: source organism: Callithrix jacchus.
The target in a further experiment is HLA-B*53:01. Described as above. As to conditions: source organism: Callithrix jacchus.

Consider VSFDQNLDY, for which the Kd (usually the free concentration of one partner at which half of the binding sites on the other are occupied at equilibrium, for simple one-to-one binding) in the experiment with HLA-A*31:01 is no less than 20 µM; with HLA-B*27:05, no less than 20 µM; with HLA-B*08:02, no less than 20 µM; with HLA-B*08:01 it was no less than 20 µM; with HLA-B*15:17 it was 0.0016 µM; in the experiment with HLA-B*15:09, no less than 20 µM. For the same sequence, the Kd in the experiment with HLA-B*18:01 [1] is no less than 20 µM; with HLA-B*40:01, no less than 20 µM; with HLA-B*48:01 it was no less than 20 µM; with HLA-B*57:01 [2] it was no less than 20 µM; in the experiment with HLA-B*46:01 it was no less than 20 µM; with HLA-A*01:01, 0.117 µM. For the same sequence, the Kd was no less than 20 µM in the experiment with HLA-B*39:01; no less than 20 µM with HLA-A*02:01 [3]; 0.019 µM in the experiment with HLA-B*15:01; no less than 20 µM with HLA-B*07:02 [4]; no less than 20 µM with HLA-A*69:01; 3.44 µM with HLA-B*58:01. The Kd in the experiment with HLA-A*03:01 [5] is 6.5 µM; in the experiment with HLA-A*26:01, no less than 20 µM; in the experiment with HLA-A*11:01, 0.0987 µM; with HLA-A*80:01 (source organism: Influenza A virus), 0.0184 µM.
Regarding SYHNVDQLK, the Kd with HLA-A*23:01 was no less than 20 µM.
Take FTIGNMFSL: the Kd in the experiment with HLA-C*05:01 is no less than 20 µM; in the experiment with HLA-C*03:03, 0.055 µM; with HLA-B*27:03 it was no less than 20 µM; in the experiment with HLA-B*18:01 [6], no less than 20 µM; in the experiment with HLA-B*57:01 [7] it was no less than 20 µM; with HLA-A*29:02, 0.738 µM. In addition, the Kd in the experiment with HLA-A*02:01 [8] was 0.0244 µM; with HLA-A*03:01 [9], no less than 20 µM; with HLA-A*80:01 (source organism: Rickettsia bellii RML369-C) it was no less than 20 µM; with HLA-A*02:11 it was 0.0059 µM.
With VPIAWAAA, the IC50 (usually the midpoint of a concentration-inhibition curve) was 0.144 µM with HLA-B*07:02 [10] and no less than 20 µM with HLA-B*53:01.
